Experimental data as given in article PMC5913336, “True equilibrium measurement of transcription factor-DNA binding affinities using automated polarization microscopy”.

How the values were obtained:
Bicoid DBD-GST (Bcd) [1] = target: T1, Bicoid DBD-GST (Bcd) (UniProt P09081 83-170); assay: competitive fluorescence anisotropy (HiP-FA); mean of replicates 2.816, 2.505; HiP-FA: 33 mM phosphate pH 7.0, 90 mM NaCl, 0.01% Tween 20, 0.1 mM DTT, 0.5% agarose; conventional titration and EMSA: 20 mM Tris-acetate pH 7.0, 50 nM (sic) NaCl, 0.01% Tween-20, 0.1 mM DTT; conditions: protein: recombinant; tags: N-terminal GST; blunt, G:G mismatch at position 6
T1 sequence: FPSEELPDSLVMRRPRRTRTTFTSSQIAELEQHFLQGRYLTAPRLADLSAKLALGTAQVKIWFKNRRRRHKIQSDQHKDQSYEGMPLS

Bicoid DBD-GST (Bcd) [2] = target: T1, Bicoid DBD-GST (Bcd); assay: competitive fluorescence anisotropy (HiP-FA); mean of replicates 3.961, 3.634; HiP-FA: 33 mM phosphate pH 7.0, 90 mM NaCl, 0.01% Tween 20, 0.1 mM DTT, 0.5% agarose; conventional titration and EMSA: 20 mM Tris-acetate pH 7.0, 50 nM (sic) NaCl, 0.01% Tween-20, 0.1 mM DTT; conditions: protein: recombinant; tags: N-terminal GST; blunt, G:G mismatch at position 6
Bcd homeodomain [3] = target: T2, Bcd homeodomain (Drosophila melanogaster, UniProt P09081-2 77-166); assay: EMSA; 20 mM Tris-acetate pH 7.0, 50 "nM" NaCl as printed (probably mM), 0.01% Tween 20, 0.1 mM DTT, 10% glycerol; room temperature; 4 nM probe; conditions: tags: N-GST (pGEX-6P-1, kept); label: Cy3
T2 sequence: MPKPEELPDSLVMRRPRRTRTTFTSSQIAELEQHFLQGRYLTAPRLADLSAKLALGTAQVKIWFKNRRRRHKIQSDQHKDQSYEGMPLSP

Bicoid DBD-GST (Bcd) [4] = target: T1, Bicoid DBD-GST (Bcd); assay: competitive fluorescence anisotropy (HiP-FA); mean of replicates 6.544, 6.784; HiP-FA: 33 mM phosphate pH 7.0, 90 mM NaCl, 0.01% Tween 20, 0.1 mM DTT, 0.5% agarose; conventional titration and EMSA: 20 mM Tris-acetate pH 7.0, 50 nM (sic) NaCl, 0.01% Tween-20, 0.1 mM DTT; conditions: protein: recombinant; tags: N-terminal GST; blunt
Bicoid DBD-GST (Bcd) [5] = target: T1, Bicoid DBD-GST (Bcd); assay: competitive fluorescence anisotropy (HiP-FA); mean of replicates 4.889, 5.1445; HiP-FA: 33 mM phosphate pH 7.0, 90 mM NaCl, 0.01% Tween 20, 0.1 mM DTT, 0.5% agarose; conventional titration and EMSA: 20 mM Tris-acetate pH 7.0, 50 nM (sic) NaCl, 0.01% Tween-20, 0.1 mM DTT; conditions: protein: recombinant; tags: N-terminal GST; blunt, C:C mismatch at position 6 as printed
Bicoid DBD-GST (Bcd) [6] = target: T1, Bicoid DBD-GST (Bcd); assay: competitive fluorescence anisotropy (HiP-FA); mean of replicates 6.092, 5.6175; HiP-FA: 33 mM phosphate pH 7.0, 90 mM NaCl, 0.01% Tween 20, 0.1 mM DTT, 0.5% agarose; conventional titration and EMSA: 20 mM Tris-acetate pH 7.0, 50 nM (sic) NaCl, 0.01% Tween-20, 0.1 mM DTT; conditions: protein: recombinant; tags: N-terminal GST; blunt
Bicoid DBD-GST (Bcd) [7] = target: T1, Bicoid DBD-GST (Bcd); assay: competitive fluorescence anisotropy (HiP-FA); mean of replicates 5.027, 4.3975; HiP-FA: 33 mM phosphate pH 7.0, 90 mM NaCl, 0.01% Tween 20, 0.1 mM DTT, 0.5% agarose; conventional titration and EMSA: 20 mM Tris-acetate pH 7.0, 50 nM (sic) NaCl, 0.01% Tween-20, 0.1 mM DTT; conditions: protein: recombinant; tags: N-terminal GST; blunt, G:G mismatch at position 6
Bcd homeodomain [8] = target: T2, Bcd homeodomain; assay: FP; binding buffer, no gel; conditions: tags: N-GST (pGEX-6P-1, kept); label: 5' Cy5 on strand 1
Bicoid DBD-GST (Bcd) [9] = target: T1, Bicoid DBD-GST (Bcd); assay: competitive fluorescence anisotropy (HiP-FA); mean of replicates 3.751, 3.7605; HiP-FA: 33 mM phosphate pH 7.0, 90 mM NaCl, 0.01% Tween 20, 0.1 mM DTT, 0.5% agarose; conventional titration and EMSA: 20 mM Tris-acetate pH 7.0, 50 nM (sic) NaCl, 0.01% Tween-20, 0.1 mM DTT; conditions: protein: recombinant; tags: N-terminal GST; blunt, G:G mismatch at position 6
Bicoid DBD-GST (Bcd) [10] = target: T1, Bicoid DBD-GST (Bcd); assay: competitive fluorescence anisotropy (HiP-FA); mean of replicates 2.884, 2.6855; HiP-FA: 33 mM phosphate pH 7.0, 90 mM NaCl, 0.01% Tween 20, 0.1 mM DTT, 0.5% agarose; conventional titration and EMSA: 20 mM Tris-acetate pH 7.0, 50 nM (sic) NaCl, 0.01% Tween-20, 0.1 mM DTT; conditions: protein: recombinant; tags: N-terminal GST; blunt, G:G mismatch at position 6
Bicoid DBD-GST (Bcd) [11] = target: T1, Bicoid DBD-GST (Bcd); assay: competitive fluorescence anisotropy (HiP-FA); mean of replicates 5.163, 4.995; HiP-FA: 33 mM phosphate pH 7.0, 90 mM NaCl, 0.01% Tween 20, 0.1 mM DTT, 0.5% agarose; conventional titration and EMSA: 20 mM Tris-acetate pH 7.0, 50 nM (sic) NaCl, 0.01% Tween-20, 0.1 mM DTT; conditions: protein: recombinant; tags: N-terminal GST; blunt, G:G mismatch at position 6

B1: Bcd competitor 2 (C1T) (dsDNA)
DNA 1: TCGATGGTAATCCCTA
DNA 2: TAGGGATTACGATCGA
Q: Which Kd (Bicoid DBD-GST (Bcd) [1]) does the source give for B1 here?
A: 2.66 nM

B2: Bcd competitor 31 (T11C) (dsDNA)
DNA 1: TCGACGGTAATCCCCA
DNA 2: TGGGGATTACGGTCGA
Q: For B2, which Kd (Bicoid DBD-GST (Bcd) [2]) is on record?
A: 3.8 nM

B3: Bcd EMSA probe (dsDNA)
DNA 1: TCGACCGTAATCCCTA
DNA 2: TAGGGATTACGGTCGA
Q: With B3 as the binder, how does the Kd (Bcd homeodomain [3]) read?
A: 1.8 ± 0.2 nM

B4: Bcd competitor 5 (G2T) (dsDNA)
DNA 1: TCGACTGTAATCCCTA
DNA 2: TAGGGATTACAGTCGA
Q: Which Kd (Bicoid DBD-GST (Bcd) [4]) does the source give for B4 here?
A: 6.66 nM

B5: Bcd competitor 4 (G2C) (dsDNA)
DNA 1: TCGACCGTAATCCCTA
DNA 2: TAGGGATTACCGTCGA
Q: With B5 as the binder, how does the Kd (Bicoid DBD-GST (Bcd) [5]) read?
A: 5.02 nM

B6: Bcd competitor 6 (G2A) (dsDNA)
DNA 1: TCGACAGTAATCCCTA
DNA 2: TAGGGATTACTGTCGA
Q: B6 was tested. Which Kd (Bicoid DBD-GST (Bcd) [6]) did it give?
A: 5.86 nM

B7: Bcd competitor 33 (T11A) (dsDNA)
DNA 1: TCGACGGTAATCCCAA
DNA 2: TTGGGATTACGGTCGA
Q: B7 was tested. Which Kd (Bicoid DBD-GST (Bcd) [7]) did it give?
A: 4.71 nM

B8: Bcd Cy5 reference (dsDNA)
DNA 1: TCGACGCTAAGCTGTA
DNA 2: TACAGCTTAGCGTCGA
Q: How did the koff (Bcd homeodomain [8]) turn out when B8 was run?
A: 0.41 s⁻¹

B9: Bcd competitor 3 (C1A) (dsDNA)
DNA 1: TCGAAGGTAATCCCTA
DNA 2: TAGGGATTACGTTCGA
Q: For B9, which Kd (Bicoid DBD-GST (Bcd) [9]) is on record?
A: 3.76 nM

B10: Bcd competitor 7 (G3C) (dsDNA)
DNA 1: TCGACGCTAATCCCTA
DNA 2: TAGGGATTAGGGTCGA
Q: With B10 as the binder, how does the Kd (Bicoid DBD-GST (Bcd) [10]) read?
A: 2.79 nM

B11: Bcd competitor 32 (T11G) (dsDNA)
DNA 1: TCGACGGTAATCCCGA
DNA 2: TCGGGATTACGGTCGA
Q: With B11 as the binder, how does the Kd (Bicoid DBD-GST (Bcd) [11]) read?
A: 5.08 nM
